The values below come from paper PMC7367873, “Dissecting the sequence determinants for dephosphorylation by the catalytic subunits of phosphatases PP1 and PP2A” (Nature Communications, 2020).

Assay [1] deals with GFP-14-3-3β. Put plainly: GFP-14-3-3β co-IP with LC-MS/MS, untreated GFP-14-3-3β versus GFP control (14-3-3 interactome). The format is binding, human. The note with it: untreated vs GFP; LFQ intensities, replicates 1-3.
Assay [2] has as its system GFP-14-3-3β and its binding proteins. Kind of assay: GFP-14-3-3β co-IP with LC-MS/MS label-free quantification, untreated versus PP1c-treated. Also noted: species or system human. Particulars: PP1 vs untreated; LFQ intensities, replicates 1-3.

B1: ZAK (protein, UniProt Q9NYL2 2-800, looked up)
Mitogen-activated protein …: SSLGASFVQIKFDDLQFFENCGGGSFGSVYRAKWISQDKEVAVKKLLKIEKEAEILSVLSHRNIIQFYGVILEPPNYGIVTEYASLGSLYDYINSNRSEEMDMDHIMTWATDVAKGMHYLHMEAPVKVIHRDLKSRNVVIAADGVLKICDFGASRFHNHTTHMSLVGTFPWMAPEVIQSLPVSETCDTYSYGVVLWEMLTREVPFKGLEGLQVAWLVVEKNERLTIPSSCPRSFAELLHQCWEADAKKRPSFKQIISILESMSNDTSLPDKCNSFLHNKAEWRCEIEATLERLKKLERDLSFKEQELKERERRLKMWEQKLTEQSNTPLLPSFEIGAWTEDDVYCWVQQLVRKGDSSAEMSVYASLFKENNITGKRLLLLEEEDLKDMGIVSKGHIIHFKSAIEKLTHDYINLFHFPPLIKDSGGEPEENEEKIVNLELVFGFHLKPGTGPQDCKWKMYMEMDGDEIAITYIKDVTFNTNLPDAEILKMTKPPFVMEKWIVGIAKSQTVECTVTYESDVRTPKSTKHVHSIQWSRTKPQDEVKAVQLAIQTLFTNSDGNPGSRSDSSADCQWLDTLRMRQIASNTSLQRSQSNPILGSPFFSHFDGQDSYAAAVRRPQVPIKYQQITPVNQSRSSSPTQYGLTKNFSSLHLNSRDSGFSSGNTDTSSERGRYSDRSRNKYGRGSISLNSSPRGRYSGKSQHSTPSRGRYPGKFYRVSQSALNPHQSPDFKRSPRDLHQPNTIPGMPLHPETDSRASEEDSKVSEGGWTKVEYRKKPHRPSPAKTNKERARGDHRGWRNF
Take B1: the “Difference (log2), untreated vs GFP” value in assay [1] came out at 2.661 log2. Moreover, in assay [2], the “Difference (log2), PP1 vs untreated” value was -1.506 log2.

B2: RIN1 (protein, UniProt Q13671 1-783, looked up)
Ras and Rab interactor 1: MESPGESGAGSPGAPSPSSFTTGHLAREKPAQDPLYDVPNASGGQAGGPQRPGRVVSLRERLLLTRPVWLQLQANAAAALHMLRTEPPGTFLVRKSNTRQCQALCMRLPEASGPSFVSSHYILESPGGVSLEGSELMFPDLVQLICAYCHTRDILLLPLQLPRAIHHAATHKELEAISHLGIEFWSSSLNIKAQRGPAGGPVLPQLKARSPQELDQGTGAALCFFNPLFPGDLGPTKREKFKRSFKVRVSTETSSPLSPPAVPPPPVPVLPGAVPSQTERLPPCQLLRRESSVGYRVPAGSGPSLPPMPSLQEVDCGSPSSSEEEGVPGSRGSPATSPHLGRRRPLLRSMSAAFCSLLAPERQVGRAAAALMQDRHTAAGQLVQDLLTQVRAGPEPQELQGIRQALSRARAMLSAELGPEKLLSPKRLEHVLEKSLHCSVLKPLRPILAARLRRRLAADGSLGRLAEGLRLARAQGPGAFGSHLSLPSPVELEQVRQKLLQLLRTYSPSAQVKRLLQACKLLYMALRTQEGEGAGADEFLPLLSLVLAHCDLPELLLEAEYMSELLEPSLLTGEGGYYLTSLSASLALLSGLGQAHTLPLSPVQELRRSLSLWEQRRLPATHCFQHLLRVAYQDPSSGCTSKTLAVPPEASIATLNQLCATKFRVTQPNTFGLFLYKEQGYHRLPPGALAHRLPTTGYLVYRRAEWPETQGAVTEEEGSGQSEARSRGEEQGCQGDGDAGVKASPRDIREQSETTAEGGQGQAQEGPAQPGEPEAEGSRAAEE
For B2, in assay [1], the “Difference (log2), untreated vs GFP” value amounted to 6.141 log2. In assay [2], the “Difference (log2), PP1 vs untreated” value is given as -1.475 log2.

B3: MITF (protein, UniProt O75030 1-526, looked up)
Microphthalmia-associated …: MQSESGIVPDFEVGEEFHEEPKTYYELKSQPLKSSSSAEHPGASKPPISSSSMTSRILLRQQLMREQMQEQERREQQQKLQAAQFMQQRVPVSQTPAINVSVPTTLPSATQVPMEVLKVQTHLENPTKYHIQQAQRQQVKQYLSTTLANKHANQVLSLPCPNQPGDHVMPPVPGSSAPNSPMAMLTLNSNCEKEGFYKFEEQNRAESECPGMNTHSRASCMQMDDVIDDIISLESSYNEEILGLMDPALQMANTLPVSGNLIDLYGNQGLPPPGLTISNSCPANLPNIKRELTACIFPTESEARALAKERQKKDNHNLIERRRRFNINDRIKELGTLIPKSNDPDMRWNKGTILKASVDYIRKLQREQQRAKELENRQKKLEHANRHLLLRIQELEMQARAHGLSLIPSTGLCSPDLVNRIIKQEPVLENCSQDLLQHHADLTCTTTLDLTDGTITFNNNLGTGTEANQAYSVPTKMGSKLEDILMDDTLSPVGVTDPLLSSVSPGASKTSSRRSSMSMEETEHTC
Regarding B3, the “Difference (log2), untreated vs GFP” value in assay [1] is 4.611 log2. The “Difference (log2), PP1 vs untreated” value in assay [2] was -1.637 log2.

B4: SH3PXD2A (protein, UniProt Q5TCZ1 1-1133, looked up)
SH3 and PX domain-containing …: MLAYCVQDATVVDVEKRRNPSKHYVYIINVTWSDSTSQTIYRRYSKFFDLQMQLLDKFPIEGGQKDPKQRIIPFLPGKILFRRSHIRDVAVKRLKPIDEYCRALVRLPPHISQCDEVFRFFEARPEDVNPPKEDYGSSKRKSVWLSSWAESPKKDVTGADATAEPMILEQYVVVSNYKKQENSELSLQAGEVVDVIEKNESGWWFVSTSEEQGWVPATYLEAQNGTRDDSDINTSKTGEVSKRRKAHLRRLDRRWTLGGMVNRQHSREEKYVTVQPYTSQSKDEIGFEKGVTVEVIRKNLEGWWYIRYLGKEGWAPASYLKKAKDDLPTRKKNLAGPVEIIGNIMEISNLLNKKASGDKETPPAEGEGHEAPIAKKEISLPILCNASNGSAVGVPDRTVSRLAQGSPAVARIAPQRAQISSPNLRTRPPPRRESSLGFQLPKPPEPPSVEVEYYTIAEFQSCISDGISFRGGQKAEVIDKNSGGWWYVQIGEKEGWAPASYIDKRKKPNLSRRTSTLTRPKVPPPAPPSKPKEAEEGPTGASESQDSPRKLKYEEPEYDIPAFGFDSEPELSEEPVEDRASGERRPAQPHRPSPASSLQRARFKVGESSEDVALEEETIYENEGFRPYAEDTLSARGSSGDSDSPGSSSLSLTRKNSPKSGSPKSSSLLKLKAEKNAQAEMGKNHSSASFSSSITINTTCCSSSSSSSSSLSKTSGDLKPRSASDAGIRGTPKVRAKKDADANAGLTSCPRAKPSVRPKPFLNRAESQSQEKMDISTLRRQLRPTGQLRGGLKGSKSEDSELPPQTASEAPSEGSRRSSSDLITLPATTPPCPTKKEWEGPATSYMTCSAYQKVQDSEISFPAGVEVQVLEKQESGWWYVRFGELEGWAPSHYLVLDENEQPDPSGKELDTVPAKGRQNEGKSDSLEKIERRVQALNTVNQSKKATPPIPSKPPGGFGKTSGTPAVKMRNGVRQVAVRPQSVFVSPPPKDNNLSCALRRNESLTATDGLRGVRRNSSFSTARSAAAEAKGRLAERAASQGSDSPLLPAQRNSIPVSPVRPKPIEKSQFIHNNLKDVYVSIADYEGDEETAGFQEGVSMEVLERNPNGWWYCQILDGVKPFKGWVPSNYLEKKN
Take B4: the “Difference (log2), untreated vs GFP” value in assay [1] turned out to be 3.934 log2. Besides, the “Difference (log2), PP1 vs untreated” value in assay [2] is recorded as -1.555 log2.

B5: ABLIM1 (protein, UniProt O14639 1-778, looked up)
Actin-binding LIM protein 1: MPAFLGLKCLGKLCSSEKSKVTSSERTSARGSNRKRLIVEDRRVSGTSFTAHRRATITHLLYLCPKDYCPRGRVCNSVDPFVAHPQDPHHPSEKPVIHCHKCGEPCKGEVLRVQTKHFHIKCFTCKVCGCDLAQGGFFIKNGEYLCTLDYQRMYGTRCHGCGEFVEGEVVTALGKTYHPNCFACTICKRPFPPGDRVTFNGRDCLCQLCAQPMSSSPKETTFSSNCAGCGRDIKNGQALLALDKQWHLGCFKCKSCGKVLTGEYISKDGAPYCEKDYQGLFGVKCEACHQFITGKVLEAGDKHYHPSCARCSRCNQMFTEGEEMYLQGSTVWHPDCKQSTKTEEKLRPTRTSSESIYSRPGSSIPGSPGHTIYAKVDNEILDYKDLAAIPKVKAIYDIERPDLITYEPFYTSGYDDKQERQSLGESPRTLSPTPSAEGYQDVRDRMIHRSTSQGSINSPVYSRHSYTPTTSRSPQHFHRPGNEPSSGRNSPLPYRPDSRPLTPTYAQAPKHFHVPDQGINIYRKPPIYKQHAALAAQSKSSEDIIKFSKFPAAQAPDPSETPKIETDHWPGPPSFAVVGPDMKRRSSGREEDDEELLRRRQLQEEQLMKLNSGLGQLILKEEMEKESRERSSLLASRYDSPINSASHIPSSKTASLPGYGRNGLHRPVSTDFAQYNSYGDVSGGVRDYQTLPDGHMPAMRMDRGVSMPNMLEPKIFPYEMLMVTNRGRNKILREVDRTRLERHLAPEVFREIFGMSIQEFDRLPLWRRNDMKKKAKLF
With B5, the “Difference (log2), untreated vs GFP” value in assay [1] came to 3.166 log2. Also, the “Difference (log2), PP1 vs untreated” value in assay [2] was -1.4799 log2.

B6: NOP2 (protein, UniProt P46087 1-812, looked up)
28S rRNA …: MGRKLDPTKEKRGPGRKARKQKGAETELVRFLPAVSDENSKRLSSRARKRAAKRRLGSVEAPKTNKSPEAKPLPGKLPKGISAGAVQTAGKKGPQSLFNAPRGKKRPAPGSDEEEEEEDSEEDGMVNHGDLWGSEDDADTVDDYGADSNSEDEEEGEALLPIERAARKQKAREAAAGIQWSEEETEDEEEEKEVTPESGPPKVEEADGGLQINVDEEPFVLPPAGEMEQDAQAPDLQRVHKRIQDIVGILRDFGAQREEGRSRSEYLNRLKKDLAIYYSYGDFLLGKLMDLFPLSELVEFLEANEVPRPVTLRTNTLKTRRRDLAQALINRGVNLDPLGKWSKTGLVVYDSSVPIGATPEYLAGHYMLQGASSMLPVMALAPQEHERILDMCCAPGGKTSYMAQLMKNTGVILANDANAERLKSVVGNLHRLGVTNTIISHYDGRQFPKVVGGFDRVLLDAPCSGTGVISKDPAVKTNKDEKDILRCAHLQKELLLSAIDSVNATSKTGGYLVYCTCSITVEENEWVVDYALKKRNVRLVPTGLDFGQEGFTRFRERRFHPSLRSTRRFYPHTHNMDGFFIAKFKKFSNSIPQSQTGNSETATPTNVDLPQVIPKSENSSQPAKKAKGAAKTKQQLQKQQHPKKASFQKLNGISKGADSELSTVPSVTKTQASSSFQDSSQPAGKAEGIREPKVTGKLKQRSPKLQSSKKVAFLRQNAPPKGTDTQTPAVLSPSKTQATLKPKDHHQPLGRAKGVEKQQLPEQPFEKAAFQKQNDTPKGPQPPTVSPIRSSRPPPAKRKKSQSRGNSQLLLS
B6: the “Difference (log2), untreated vs GFP” value in assay [1] stood at 2.385 log2. Besides, in assay [2], the “Difference (log2), PP1 vs untreated” value was -1.5353 log2.

B7: MAP3K2 (protein, UniProt Q9Y2U5 1-619, looked up)
Mitogen-activated protein …: MDDQQALNSIMQDLAVLHKASRPALSLQETRKAKSSSPKKQNDVRVKFEHRGEKRILQFPRPVKLEDLRSKAKIAFGQSMDLHYTNNELVIPLTTQDDLDKAVELLDRSIHMKSLKILLVINGSTQATNLEPLPSLEDLDNTVFGAERKKRLSIIGPTSRDRSSPPPGYIPDELHQVARNGSFTSINSEGEFIPESMDQMLDPLSLSSPENSGSGSCPSLDSPLDGESYPKSRMPRAQSYPDNHQEFSDYDNPIFEKFGKGGTYPRRYHVSYHHQEYNDGRKTFPRARRTQGTSLRSPVSFSPTDHSLSTSSGSSIFTPEYDDSRIRRRGSDIDNPTLTVMDISPPSRSPRAPTNWRLGKLLGQGAFGRVYLCYDVDTGRELAVKQVQFDPDSPETSKEVNALECEIQLLKNLLHERIVQYYGCLRDPQEKTLSIFMEYMPGGSIKDQLKAYGALTENVTRKYTRQILEGVHYLHSNMIVHRDIKGANILRDSTGNVKLGDFGASKRLQTICLSGTGMKSVTGTPYWMSPEVISGEGYGRKADIWSVACTVVEMLTEKPPWAEFEAMAAIFKIATQPTNPKLPPHVSDYTRDFLKRIFVEAKLRPSADELLRHMFVHYH
Regarding B7, the “Difference (log2), untreated vs GFP” value in assay [1] is 6.201 log2. Moreover, in assay [2], the “Difference (log2), PP1 vs untreated” value was -1.618 log2.
